Tested on: MS2 coat protein
Test: apparent KD of MS2 coat protein; designed switch direction (-1 OFF switch, 1 ON switch): -1; higher = weaker reporter binding
Summary of the method: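 The apparent KD reported per design is the median over clusters of curve fits to normalised cluster fluorescence. The RNA switches were transcribed on Illumina chips by stalled E. coli RNA polymerase. SNAP-549-labelled MS2 coat protein was titrated from 0.7 or 1.5 nM, doubling up to 3 µM, in Tris-HCl pH 7.5 buffer containing KCl, MgCl2, BSA, DTT, tRNA and Tween-20, with no input, 200 uM small-molecule ligand, or an oligonucleotide input.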

[1] = Eterna round: R95, input ligand: FMN 200 uM
[2] = Eterna round: R95, input ligand: microRNA oligo, concentration not stated
[3] = Eterna round: R95, input ligand: none
[4] = input ligand: microRNA oligo, concentration not stated

| Sequence | apparent KD of MS2 coat protein [2] [µM] | apparent KD of MS2 coat protein (input ligand: FMN 200 uM) [µM] | apparent KD of MS2 coat protein (input ligand: none) [µM] | further results |
| --- | --- | --- | --- | --- |
| AUAGAGUCAGGAUAUACAGGUGGAGGAGAGCAGCAUAAGGAGUAGAAGGGACAUGAGGAUCACCCAUGUAAGUG [JR_Exclu4_Sub059] (puzzle: Exclusion 4) | 0.0639 |  |  | apparent KD of MS2 coat protein [1]: 0.0459 µM; apparent KD of MS2 coat protein [3]: 0.0569 µM |
| AAGUCCAGAGGAUAUCAGACGCGGCACAUGAGGAUCACCCAUGUAUUCCCGUCUGCCGACUGAGAAGGUUGGAAAG [Vesoarusqu] (puzzle: Exclusion 5) | 0.0111 |  |  |  |
| UUUAAUUUUUUUUUUUUACAAGCUUUUUGCUCGUCUUAUACAUGAGGAUCACCCAUGUGGGUGGAAAAUAAAUUAUC [JMF 92] (Eterna round: R96, puzzle: Sensor v3, turn-off variant 2) |  | 0.583 | 0.472 | apparent KD of MS2 coat protein [4]: 0.232 µM |
| AGAUCGUCAGGAUAUACAUGAGGAUCACCCAUGUAUUGUCUAAAUUUGACUAUACGAUGUAGAAGGGACGAUCG [Exclusion 3 (MOD7 of #1 Marzena11)] (Eterna round: R97, puzzle: Exclusion 3) |  | 0.0417 | 0.0162 |  |
| GUAACAUGCUGGUGAUCAUACAUGAGGAUCACCCAUGUAACAAGCUUUUUGCUCGUCUUAUAAGAUUACUAGUAUGU [Stov1/10-A3] (Eterna round: R97, puzzle: Sensor, turn-off variant 1) |  | 0.022 | 0.0243 |  |
| AUGUUGCGAGGAUAUAUAAGGGUAUAUUAAUAAGAUAUGGAACAUGAGGAUCACCCAUGUAGAAGGUGCAUAAC [JR_Ex2_Sub041] (Eterna round: R97, puzzle: Exclusion 2) |  | 0.0456 | 0.0336 |  |
| AGUACUGACACGUUGGUGUUAGUACAAUAAGCUUGUGAUACAUGAGGAUCACCCAUGUCCUCAUAAGCUCGUCUUAU [salish99_TOv2_r2_093] (puzzle: Sensor v3, turn-off variant 2) | 0.881 |  |  | apparent KD of MS2 coat protein [1]: 0.0261 µM; apparent KD of MS2 coat protein [3]: 0.0211 µM |
| UUUAAUUGUCAGAUGGGUGACAUGAGGAUCACCCAUGUCACAAGCUUUUUGUUCGUCUUAUAAUUAACCCAUCUGAC [Stov1/11-B1] (Eterna round: R97, puzzle: Sensor, turn-off variant 1) |  | 0.014 | 0.0138 |  |
| AAUAAUCAUGUAGGAUAUGCGUGGCAAAGCUAUGCAGAAGGACAUGAGGAUCACCCAUGUUCUAGCGUCUGAAAACAGAUGCUA [Mat - Exclusion NG 1 - Mod of JL - D83] (Eterna round: R96, puzzle: Exclusion NG 1) |  | 0.451 | 0.0443 | apparent KD of MS2 coat protein [4]: 0.0295 µM |
| AUUUAAUUUAAUAAGAUCACAUGAGGAUCACCCAUGUAUAUAUAGGAUAUCAGCUCGAAUAGAGCUGAGAAGGAUAUAUACAUG [ExNG3/8-A4] (Eterna round: R96, puzzle: Exclusion NG 3) |  |  |  | apparent KD of MS2 coat protein [4]: 0.0154 µM |
| AGAUGGCGAGGAUAUACAUGAGGAUCACCCAUGUGAGAGAAAAGAGUGAGGAAGAAAAGUAGAAGGCGCUGUCA [Mat - Exclusion 3 - Mod of Salish D17] (puzzle: Exclusion 3) | 0.071 |  |  |  |
| CCCACCUCAUGAACAACAUGAGGAUCACCCAUGUUGAAGACUAAGGAUAUCGUACUCGAUGAAUGCGAGAAGGUGGCACUUCGA [Eternabot solution 36] (Eterna round: R96, puzzle: Exclusion NG 3) |  | 0.0373 | 0.0287 | apparent KD of MS2 coat protein [4]: 0.0207 µM |
| CGGCGCCUAGGAUAUACUCUGAGAAUCAGUUGGGUCUCCGGACAUGAGGAUCACCCAUGUAGAAGGAGGAAGCU [EX2 C.11] (Eterna round: R97, puzzle: Exclusion 2) |  | 0.0213 | 0.0184 |  |
| GGGCCCGGUGUGAGGAUAUGUGAUCGGAAAUGAUCGUAGAAGGCACAUGAGGAUCACCCAUGUAAGCCGGGCCC [-31.3, -29.2 kcal, A 26%, 2-0] (Eterna round: R97, puzzle: Brourd's mod of Exclusion 4) |  | 0.0342 | 0.289 |  |
| GUAAAUCAUGUAGGAUAUGCAUAGCAAAGCUAUGCAGAAGGACAUGAGGAUCACCCAUGUCAUUCCGUCUGGAGACAGACGGAA [Mat - Exclusion NG 1 - Mod of JL - D59] (Eterna round: R96, puzzle: Exclusion NG 1) |  | 0.121 | 0.0322 | apparent KD of MS2 coat protein [4]: 0.022 µM |
| AAGUACCGUCACGAUAGUGAUGGUACAACAAGUAGUGAAACAUGAGGAUCACCCAUGUCCUCAUUUGCUCGUCUUAU [Sensor 3 - 87] (puzzle: Sensor v3, turn-off variant 2) | 0.365 |  |  | apparent KD of MS2 coat protein [1]: 1.03 µM; apparent KD of MS2 coat protein [3]: 0.806 µM |
| GUUUUCAGACGGAGAUCCUACAUGAGGAUCACCCAUGUCUCUCUUGUUUUUUGCUCGUCUUAUCCUCCUCUGUUCUC [Elimod 31 - Jieux - Sensor, turn-off variant 1] (Eterna round: R97, puzzle: Sensor, turn-off variant 1) |  | 0.467 | 0.52 |  |

| Sequence | apparent KD of MS2 coat protein [2] [µM] | apparent KD of MS2 coat protein (input ligand: FMN 200 uM) [µM] | apparent KD of MS2 coat protein (input ligand: none) [µM] | further results |
| --- | --- | --- | --- | --- |
| ACAUGAGGAUCACCCAUGUCAGGCUGGUCCGCUCCGGCUGUUGAGGAUAUAGCACGGUGUCCGCGCUAGAAGGUGAGGGCCGGC [Aenatbe mod 31] (Eterna round: R96, puzzle: Exclusion NG 3) |  | 0.0248 | 0.0264 | apparent KD of MS2 coat protein [4]: 0.0157 µM |
| CUUACACAUGAGGAUCACCCAUGUGAGGAUAUGCGUACGUUGUCCGUAGGCGACGUGCGCAGAAGGCGCUUGGU [JL-ex1-3.19 Eli mod] (puzzle: Exclusion 1) | 0.0553 |  |  |  |
| AAUCCACAUGAGGAUCACCCAUGUCAGGAUAUCGCGCGCGCGUUUUCGGUCUUUCGCGCGAGAAGGGACGGCUG (puzzle: Exclusion 1) | 0.0163 |  |  |  |
| AAAUCGGUAGAGGAUAUUGUACAGGAAACGGUGCAAGAAGGUUACACAUGAGGAUCACCCAUGUUAAAUUGCGA [EX6 #52] (Eterna round: R97, puzzle: Exclusion 6) |  | 0.0214 | 0.0173 |  |
| AGUACUAUCACGAAAGUGAUAGUACAAUUGAGCUUUUGAACAUGAGGAUCACCCAUGUCCUCAUAAGCUCGUCUUAA [Mat - Sensor v2 - var 2 - Mod - D171] (Eterna round: R96, puzzle: Sensor v2, turn-off variant 2) |  | 0.0287 | 0.0305 | apparent KD of MS2 coat protein [4]: 0.496 µM |
| UUUUAGAGAGGAUAUAUAAAGUGAAACAUGAGGAUCACCCAUGUAAUUUUAUGGAUGUAAAUAGAAGGCUCAUUUU [Mat - Exclusion 5 - JL mod - D2] (puzzle: Exclusion 5) | 0.0342 |  |  | apparent KD of MS2 coat protein [1]: 0.0278 µM; apparent KD of MS2 coat protein [3]: 0.0347 µM |
| AUCGAGAUAGGAUAUGCCCAAGUAAACAUGAGGAUCACCCAUGUGGGUCACCUCUUCACGGUAGAAGGGUUAGAUU [Eternabot (L1) Solution 90] (Eterna round: R97, puzzle: Exclusion 5) |  | 0.062 | 0.0818 |  |
| GUCUUGAUAGGAUAUACAUGAGGAUCACCCAUGUCCCACCCGUUACCUCUGACCCUAUGUAGAAGGAUCGUUUG [Exy#17] (Eterna round: R97, puzzle: Exclusion 3) |  | 0.0343 | 0.0483 |  |
| UAGAUGGGAGGAUAUGCGUAGAUACGGAUUCGUGUAGUGCUACAUGAGGAUCACCCAUGUAGAAGGCCCGUCUU [JL-ex2-2.28 Mayanne mod] (puzzle: Exclusion 2) | 0.0139 |  |  |  |
| ACGCUGUGAGGAUAUACAUGAGGAUCACCCAUGUUAAGGAAGUCUUGGUUAAUUUGGAGUAGAAGGCGCUUAUU [JR_Ex3_Sub016] (Eterna round: R97, puzzle: Exclusion 3) |  | 0.0315 | 0.0349 |  |
| GCACGGUUGCUAGGAUAUCCUUGCGAUUAGCAAGGAGAAGGAGCACAUGAGGAUCACCCAUGUACCUCAAUAAUCCAUCCGUGC [Eli exng1 - 029] (Eterna round: R96, puzzle: Exclusion NG 1) |  |  |  | apparent KD of MS2 coat protein [4]: 0.011 µM |
| CACACGUAAGGAUAUACAACGGAAACGGGCGCGCGGGCCUCACAUGAGGAUCACCCAUGUAGAAGGUGCACGGG [Eternabot (Original) Solution 18] (Eterna round: R97, puzzle: Exclusion 2) |  | 0.0417 | 0.0503 |  |
| CCGCAAAAGGAGGAUAUCGUAUCGGAUACGAUACGAGAAGGCCUAACAUGAGGAUCACCCAUGUGUCCUAGCGG [Fiskers Ex 6 - 36] (puzzle: Exclusion 6) | 0.0148 |  |  | apparent KD of MS2 coat protein [1]: 0.0238 µM; apparent KD of MS2 coat protein [3]: 0.0145 µM |
| GUGUACGUAGGAUAUACAUGAGGAUCACCCAUGUGAAUAAGAUAGAAUAAGAUAAAGUGUAGAAGGACGAGUGU [Excluse me!!! 6 - Jieux - Exclusion 3] (puzzle: Exclusion 3) | 0.0304 |  |  |  |
| AUCAUAACCUAGGAUAUGUAGCAGCCCGCAGCGACAGAAGGAGGUACAUGAGGAUCACCCAUGUCCACUCCCGU [EX6 C.11] (Eterna round: R97, puzzle: Exclusion 6) |  | 0.0124 | 0.0118 |  |
| GUCGUGUUAGGAUAUAACAACUACUAAUAAAUUAGUAGUUGUUAGAAGGAACAUGAGGAUCACCCAUGUAUGAC [-23.4, -22.9 kcal, A 36%] (Eterna round: R97, puzzle: Exclusion 4) |  | 0.192 | 0.0431 |  |
| AAAACUGCUCAGGAUAUUUGUGUGUCAGGGCAUAAAGAAGGGAGCACAUGAGGAUCACCCAUGUGUUGGGUUCC [Zasozaer] (puzzle: Exclusion 6) | 0.0687 |  |  |  |

From the supplement of paper PMC9170038
